Kd data for 2 molecules are collected here from publication PMC2566858 (Nucleic Acids Research, 2008).

Common to all, as to test: fluorescence anisotropy
On the technique in general: Polarisation of emitted light reports the rotation of a fluorescent probe.

Data set [1] deals with T1, rGyr_fl Y851F (full-length reverse gyrase) (Thermotoga maritima, UniProt O51934 1-1104, Y851F).
T1 sequence: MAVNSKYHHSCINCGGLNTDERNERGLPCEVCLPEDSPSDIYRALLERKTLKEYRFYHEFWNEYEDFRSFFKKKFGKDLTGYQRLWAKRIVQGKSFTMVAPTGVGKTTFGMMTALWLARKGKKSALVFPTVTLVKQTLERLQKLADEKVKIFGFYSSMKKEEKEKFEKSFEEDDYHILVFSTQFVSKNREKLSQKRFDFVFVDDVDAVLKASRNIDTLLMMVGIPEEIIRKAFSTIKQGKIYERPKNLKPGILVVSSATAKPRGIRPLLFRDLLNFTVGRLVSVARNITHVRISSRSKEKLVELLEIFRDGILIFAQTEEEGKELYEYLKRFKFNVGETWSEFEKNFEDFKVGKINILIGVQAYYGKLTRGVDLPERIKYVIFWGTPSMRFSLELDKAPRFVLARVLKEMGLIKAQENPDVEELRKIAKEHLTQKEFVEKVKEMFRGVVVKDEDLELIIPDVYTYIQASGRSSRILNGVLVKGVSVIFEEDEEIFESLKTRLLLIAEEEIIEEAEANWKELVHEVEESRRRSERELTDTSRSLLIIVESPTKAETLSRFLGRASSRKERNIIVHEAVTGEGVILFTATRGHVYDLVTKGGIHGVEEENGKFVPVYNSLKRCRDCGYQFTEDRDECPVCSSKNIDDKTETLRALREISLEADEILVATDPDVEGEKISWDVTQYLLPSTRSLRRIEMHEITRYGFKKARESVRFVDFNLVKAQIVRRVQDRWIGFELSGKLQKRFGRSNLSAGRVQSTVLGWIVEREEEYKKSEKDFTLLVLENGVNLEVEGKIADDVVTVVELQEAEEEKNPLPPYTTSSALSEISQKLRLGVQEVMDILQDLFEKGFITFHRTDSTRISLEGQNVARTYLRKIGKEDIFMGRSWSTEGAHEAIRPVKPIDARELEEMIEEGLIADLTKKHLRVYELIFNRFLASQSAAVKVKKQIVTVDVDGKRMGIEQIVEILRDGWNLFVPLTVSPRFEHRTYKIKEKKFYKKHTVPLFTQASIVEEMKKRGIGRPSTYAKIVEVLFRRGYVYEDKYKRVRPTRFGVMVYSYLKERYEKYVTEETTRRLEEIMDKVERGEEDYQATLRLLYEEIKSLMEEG

Data set [2] has as its target T2, rGyr_hel (reverse gyrase helicase-like domain) (Thermotoga maritima, UniProt O51934 59-541).
T2 sequence: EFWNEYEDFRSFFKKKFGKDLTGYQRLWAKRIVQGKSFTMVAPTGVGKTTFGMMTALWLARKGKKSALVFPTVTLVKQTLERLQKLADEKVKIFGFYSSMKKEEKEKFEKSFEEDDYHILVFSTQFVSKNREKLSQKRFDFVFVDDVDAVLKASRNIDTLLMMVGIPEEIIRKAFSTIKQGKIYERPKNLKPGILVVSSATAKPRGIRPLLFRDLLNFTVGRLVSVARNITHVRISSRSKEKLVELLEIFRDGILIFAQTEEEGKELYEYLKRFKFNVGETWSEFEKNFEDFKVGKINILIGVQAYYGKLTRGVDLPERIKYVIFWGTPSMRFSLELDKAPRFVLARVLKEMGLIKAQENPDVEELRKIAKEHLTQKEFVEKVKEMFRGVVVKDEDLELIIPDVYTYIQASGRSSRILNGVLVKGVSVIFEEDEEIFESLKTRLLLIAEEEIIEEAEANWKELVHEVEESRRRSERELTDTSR

A further data set deals with T3, rGyr_fl K106Q/Y851F (Thermotoga maritima, UniProt O51934 1-1104, K106Q;Y851F).
T3 sequence: T1 sequence with K106Q

Where a chain is given by its changes, count along the chain named.

B1: 60-base ssDNA (ssDNA)
DNA: AAGCCAAGCTTCTAGAGTCAGCCCGTGATATTCATTACTTCTTATCCTAGGATCCCCGTT
One may read the Kd as a measure of binding affinity in units of concentration. Low readings indicate tighter binding, high ones weaker binding. As to B1, the figures for the Kd in data set [1] and in data set [2] were 39 ± 1 nM and 200 ± 10 nM, respectively.

B2: 60 bp dsDNA (dsDNA)
DNA 1: B1 DNA
DNA 2: AACGGGGATCCTAGGATAAGAAGTAATGAATATCACGGGCTGACTCTAGAAGCTTGGCTT
In the data set with rGyr_fl K106Q/Y851F, B2 yielded a Kd of 710 ± 110 nM.
